Measured values as given in patent US20150210761A1 (SAMSUNG ELECTRONICS, published 2015).

Experiments:
[1] = biological target: Ang2 RBD mutant A449 (human) (UniProt O15123); assay: ELISA; antibody coated, FLAG-tagged RBD mutant, anti-FLAG-HRP detection
[2] = biological target: T1, Ang2 mutant K468 (full-length Ang2) (human, UniProt O15123 19-496, limits assumed); assay: ELISA; antibody coated, FLAG-tagged full-length Ang2 mutant, anti-FLAG-HRP detection
T1 sequence: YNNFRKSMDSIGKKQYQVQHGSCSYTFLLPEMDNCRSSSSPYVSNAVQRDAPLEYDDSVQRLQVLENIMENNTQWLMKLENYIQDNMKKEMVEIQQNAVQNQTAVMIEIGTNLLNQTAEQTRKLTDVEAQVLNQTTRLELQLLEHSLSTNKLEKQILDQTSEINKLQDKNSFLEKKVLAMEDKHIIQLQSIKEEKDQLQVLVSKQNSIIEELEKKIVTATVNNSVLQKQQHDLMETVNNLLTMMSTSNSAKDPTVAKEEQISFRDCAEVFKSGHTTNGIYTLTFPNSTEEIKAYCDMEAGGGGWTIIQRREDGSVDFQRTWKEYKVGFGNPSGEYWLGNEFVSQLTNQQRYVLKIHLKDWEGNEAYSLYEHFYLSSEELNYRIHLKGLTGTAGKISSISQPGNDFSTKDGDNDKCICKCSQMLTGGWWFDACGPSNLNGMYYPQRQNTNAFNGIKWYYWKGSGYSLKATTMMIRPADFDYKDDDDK
Protocol: (§1) A 96-well MaxiSorp™ flat-bottom plate (Nunc) was coated with 50 μl of each anti-Ang2 antibody (400 nM). After that, the plate was washed five times with 0.05% (v/v) Tween-20-containing PBS (PBST) and then blocked with 1% (v/v) BSA-containing PBS at a room temperature for 2 hours. S417, P419, N421, I434, D448, A449, P452, Y460, N467, K468, or F469 residue of Ang2 (SEQ ID NO: 27) was mutated (substituted) with alanine and tagged with FLAG (N-[…]-C; 1012 Da) and then 250 ng of them was each added to each well to the plate, which was allowed to react at a room temperature for 2 hours.
(§2) Thereafter, the plate was washed five times with 0.05% (v/v) Tween-20-containing PBS and then, an HRP-conjugated anti-FLAG antibody (SIGMA) diluted in 1% (v/v) BSA-containing PBS at 1:5,000 ratio (v/v) was added in the amount of 50 μl to each well to react at a room temperature for 1 hour, followed by washing five times with 0.1% (v/v) Tween-20-containing PBS.
(§3) Finally, 100 μl of TMB substrate (cell signal) was added to each well of the plate to induce color development for 3 minutes and then, the reaction was ceased by the addition of 100 μl of stop solution (Cell signaling) and OD450 values were measured on a plate reader (Molecular Devices). By comparing binding intensity to mutated Ang2 to binding intensity to non-mutated (native) Ang2, each epitope for the Ang2 antibodies was identified.

[3] = biological target: T2, Ang2 mutant F469 (full-length Ang2) (human, UniProt O15123 19-496, limits assumed); assay: as above
T2 sequence: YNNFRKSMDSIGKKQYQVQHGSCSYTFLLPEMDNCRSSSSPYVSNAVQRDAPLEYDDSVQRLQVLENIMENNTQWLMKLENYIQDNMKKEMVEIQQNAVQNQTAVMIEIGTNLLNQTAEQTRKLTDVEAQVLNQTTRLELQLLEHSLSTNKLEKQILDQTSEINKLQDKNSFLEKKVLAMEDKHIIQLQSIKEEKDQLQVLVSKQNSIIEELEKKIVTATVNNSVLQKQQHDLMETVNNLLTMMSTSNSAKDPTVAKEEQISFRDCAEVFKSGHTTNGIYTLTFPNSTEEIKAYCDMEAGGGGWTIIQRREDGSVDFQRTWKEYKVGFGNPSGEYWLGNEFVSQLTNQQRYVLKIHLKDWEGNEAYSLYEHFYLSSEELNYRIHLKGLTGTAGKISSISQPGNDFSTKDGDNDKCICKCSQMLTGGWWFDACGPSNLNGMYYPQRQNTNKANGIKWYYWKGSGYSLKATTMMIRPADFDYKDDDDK
Protocol: as §1, §2, §3

[4] = biological target: T3, Ang2 mutant I434 (full-length Ang2) (human, UniProt O15123 19-496, limits assumed); assay: as above
T3 sequence: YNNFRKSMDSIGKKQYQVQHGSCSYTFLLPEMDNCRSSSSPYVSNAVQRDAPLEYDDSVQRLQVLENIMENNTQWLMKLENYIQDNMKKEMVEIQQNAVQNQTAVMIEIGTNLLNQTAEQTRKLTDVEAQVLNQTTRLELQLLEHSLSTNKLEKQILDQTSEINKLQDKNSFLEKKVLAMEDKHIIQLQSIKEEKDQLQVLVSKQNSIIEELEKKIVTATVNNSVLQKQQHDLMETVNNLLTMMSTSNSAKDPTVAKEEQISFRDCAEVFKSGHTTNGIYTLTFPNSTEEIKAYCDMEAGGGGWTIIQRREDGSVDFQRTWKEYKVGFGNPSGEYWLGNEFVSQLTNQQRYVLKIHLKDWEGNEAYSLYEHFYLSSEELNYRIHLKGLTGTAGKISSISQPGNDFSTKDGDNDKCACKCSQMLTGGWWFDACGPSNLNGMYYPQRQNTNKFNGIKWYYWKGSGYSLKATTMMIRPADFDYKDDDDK
Protocol: as §1, §2, §3

B1: SAIT-ANG2-AB-m1A10 (antibody, V domains shown)
VH: QVQLQQSGAELMKPGASVKISCKATDYTFSSYWLEWLIQRPGHGLEWIGEILPGSGSTNYNEKFRGKATFTEDTSSNTAYMQLSSLTSEDSAVYYCARGNHNSYYYAMDYWGQGTSVTVSS
VL: DIVLTQSPASLAVSLGQRATISCRASESVDSYGNSFMHWYQQKPGQPPKLLIYRASNLDSGIPARFSGSGSRTDFTLTINPVEADDVATYYCQQSNEDPLTFGAGTKLELK
notes: also called hybridoma KCLRF-BP-00306
- Binding (%) (mutant Ang2 / native Ang2) [1]: 95.6%

B2: SAIT-ANG2-AB-m8D3 (antibody, V domains shown)
VH: EVQLQQSGPELVKPGDSVKMSCKASGYTFTDYYMKWVRQSHGKSLQWVGEINPKNGDTFYNQIFKGKATLTVDKSSSTAYMQLTSLTSEDSAVYYCTRENDYDVGFFDYWGQGTSVTVSS
VL: TIVMTQTPKFLLVSAGDRITITCKASQSVSNDVAWYQQKPGQSPKLLIYYASNRYPGVPDRFTGSGYGTDFTFTISTVQAEDLAVYFCQQDYTSPWTFGGGTELEIK
notes: also called hybridoma KCLRF-BP-00308
- Binding (%) (mutant Ang2 / native Ang2) [2]: 20.5%
- Binding (%) (mutant Ang2 / native Ang2) [3]: 41.9%
- Binding (%) (mutant Ang2 / native Ang2) [4]: 137%
